Assay [1] concerns the target NTCP-V5-His G60LXXXA64L/G233LXXXG237L (TMD2/7) double mutant. Briefly: co-IP (IP anti-FLAG agarose, western blot anti-V5, ImageJ band quantification). The settings on record: HEK293 cells co-transfected with NTCP-FLAG and NTCP-V5-His; n = 3 independent experiments; parent: est. 100; read off a plot.
Assay [2] deals with NTCP-V5-His G233LXXXG237L (TMD7) mutant. Described as above. The settings on record: HEK293 cells co-transfected with NTCP-FLAG and NTCP-V5-His; n = 3 independent experiments; parent: est. 100; read off a plot.

As to “NTCP wild type, NTCP-FLAG and NTCP-V5-His expressed in HEK293 cells (from UniProt Q14973) binder (NTCP-FLAG): G60L; A64L; G233L; G237L; target (NTCP-V5): G60L; A64L; G233L; G237L”, the percent of parent in assay [1] was 130 % of control.
On to “NTCP wild type, NTCP-FLAG and NTCP-V5-His expressed in HEK293 cells (from UniProt Q14973) binder (NTCP-FLAG): G60L; A64L; target (NTCP-V5): G233L; G237L”, for which the percent of parent in assay [2] was 120 % of control.

These data come from PMC8257933.
